# Test system: Escherichia coli TOP10
# Test: shrunken log2 fold change of peptide-encoding DNA abundance (4.5 h post-induction vs induction); higher = less antimicrobial activity (less host growth inhibition)
# Conditions: time post-induction: 4.5 h; library: site-saturation at positions 5, 18, 19, 20
# 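Also: peptides expressed intracellularly from a pBAD plasmid library in pooled LB shake-flask culture, induced with 0.3% L-arabinose, DNA abundance read by NGS, three biological replicates, DESeq2 with apeglm shrinkage.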
row,Sequence,shrunken log2 fold change
1,RRIRQRPPRLPRPRPRPPSCPRP,0.348
2,RRIRMRPPRLPRPRPRPINWPRP,-0.011
3,RRIRYRPPRLPRPRPRPYLVPRP,-0.536
4,RRIRCRPPRLPRPRPRPQCIPRP,-0.458
5,RRIRNRPPRLPRPRPRPWPEPRP,-0.0309
6,RRIRTRPPRLPRPRPRPGDHPRP,0.00667
7,RRIRGRPPRLPRPRPRPWCEPRP,0.0333
8,RRIRCRPPRLPRPRPRPEKRPRP,-0.123
9,RRIRVRPPRLPRPRPRPQGSPRP,-0.205
10,RRIRMRPPRLPRPRPRPMTFPRP,-0.512
11,RRIRCRPPRLPRPRPRPAVRPRP,0.0848
12,RRIRVRPPRLPRPRPRPDIYPRP,-0.131
13,RRIRKRPPRLPRPRPRPICDPRP,0.0999
14,RRIRCRPPRLPRPRPRPKGQPRP,0.0213
15,RRIRWRPPRLPRPRPRPPAFPRP,0.204
16,RRIRPRPPRLPRPRPRPPDWPRP,0.577
17,RRIRVRPPRLPRPRPRPLRWPRP,0.63
18,RRIRARPPRLPRPRPRPWLMPRP,0.0299
19,RRIRKRPPRLPRPRPRPNCIPRP,-0.0156
20,RRIRSRPPRLPRPRPRPQDNPRP,-0.362
21,RRIRWRPPRLPRPRPRPICRPRP,-0.0371
22,RRIRYRPPRLPRPRPRPSCTPRP,-1.36
23,RRIRHRPPRLPRPRPRPTKGPRP,-0.14

row,Sequence,shrunken log2 fold change
1,RRIRSRPPRLPRPRPRPVSVPRP,0.0162
2,RRIRARPPRLPRPRPRPCKIPRP,-0.165
3,RRIRYRPPRLPRPRPRPNQFPRP,-0.533
4,RRIRQRPPRLPRPRPRPNIGPRP,-0.0212
5,RRIRVRPPRLPRPRPRPCCLPRP,-0.241
6,RRIRHRPPRLPRPRPRPSGAPRP,-0.0845
7,RRIRCRPPRLPRPRPRPQPTPRP,0.319
8,RRIRRRPPRLPRPRPRPAKSPRP,0.242
9,RRIRFRPPRLPRPRPRPTYLPRP,-0.243
10,RRIRERPPRLPRPRPRPPLWPRP,0.779
11,RRIRHRPPRLPRPRPRPKFNPRP,-0.437
12,RRIRYRPPRLPRPRPRPKIEPRP,-0.00459
13,RRIRKRPPRLPRPRPRPKWGPRP,0.594
14,RRIRARPPRLPRPRPRPGFCPRP,0.572
15,RRIRQRPPRLPRPRPRPHGTPRP,-0.0865
16,RRIRCRPPRLPRPRPRPDTFPRP,0.0257
17,RRIRNRPPRLPRPRPRPGSYPRP,-0.442
18,RRIRKRPPRLPRPRPRPWRQPRP,0.182
19,RRIRWRPPRLPRPRPRPWDRPRP,0.215
20,RRIRDRPPRLPRPRPRPAGVPRP,0.25
21,RRIRIRPPRLPRPRPRPSQHPRP,-0.71
22,RRIRGRPPRLPRPRPRPKACPRP,0.145
23,RRIRNRPPRLPRPRPRPKGSPRP,-0.0293

row,Sequence,shrunken log2 fold change
1,RRIRCRPPRLPRPRPRPPDQPRP,0.581
2,RRIRIRPPRLPRPRPRPQPDPRP,-0.483
3,RRIRSRPPRLPRPRPRPRTGPRP,0.185
4,RRIRERPPRLPRPRPRPTKWPRP,0.155
5,RRIRPRPPRLPRPRPRPKDVPRP,-0.115
6,RRIRGRPPRLPRPRPRPRNPPRP,0.52
7,RRIRLRPPRLPRPRPRPAIYPRP,-1.28
8,RRIRSRPPRLPRPRPRPGSDPRP,0.0314
9,RRIRERPPRLPRPRPRPRYEPRP,-0.276
10,RRIRIRPPRLPRPRPRPYWNPRP,-0.694
11,RRIRERPPRLPRPRPRPANNPRP,-0.598
12,RRIRARPPRLPRPRPRPLKRPRP,0.37
13,RRIRFRPPRLPRPRPRPEVEPRP,0.00408
14,RRIRLRPPRLPRPRPRPCLGPRP,-0.25
15,RRIRYRPPRLPRPRPRPDAQPRP,-0.0145
16,RRIRCRPPRLPRPRPRPFPLPRP,-0.0156
17,RRIRTRPPRLPRPRPRPEMFPRP,-0.0156
18,RRIRCRPPRLPRPRPRPDPCPRP,-0.039
19,RRIRGRPPRLPRPRPRPEMSPRP,0.25
20,RRIRCRPPRLPRPRPRPCKCPRP,-0.0236
21,RRIRNRPPRLPRPRPRPAWTPRP,0.182
22,RRIRTRPPRLPRPRPRPGMLPRP,-0.141
23,RRIRQRPPRLPRPRPRPHRCPRP,0.109

row,Sequence,shrunken log2 fold change
1,RRIRRRPPRLPRPRPRPYGWPRP,0.0825
2,RRIRWRPPRLPRPRPRPYTKPRP,0.000534
3,RRIRFRPPRLPRPRPRPEPHPRP,0.258
4,RRIRCRPPRLPRPRPRPSVCPRP,0.0114
5,RRIRVRPPRLPRPRPRPDYNPRP,-0.554
6,RRIRMRPPRLPRPRPRPVYLPRP,-0.683
7,RRIRIRPPRLPRPRPRPDWWPRP,-0.00879
8,RRIRARPPRLPRPRPRPQQWPRP,0.2
9,RRIRVRPPRLPRPRPRPLTSPRP,0.0775
10,RRIRDRPPRLPRPRPRPVSDPRP,-0.145
11,RRIRARPPRLPRPRPRPGMLPRP,0.334
12,RRIRCRPPRLPRPRPRPNKEPRP,-0.189
13,RRIRIRPPRLPRPRPRPNVHPRP,-0.398
14,RRIRWRPPRLPRPRPRPVIAPRP,0.037
15,RRIRSRPPRLPRPRPRPKTAPRP,0.097
16,RRIRPRPPRLPRPRPRPESRPRP,0.11
17,RRIRERPPRLPRPRPRPCHGPRP,-0.989
18,RRIRQRPPRLPRPRPRPETDPRP,-0.167
19,RRIRQRPPRLPRPRPRPPCDPRP,-0.0587
20,RRIRLRPPRLPRPRPRPALVPRP,-0.0636
21,RRIRTRPPRLPRPRPRPLPVPRP,-0.103
22,RRIRVRPPRLPRPRPRPIRYPRP,0.146

# From the supplement of paper PMC9112550, “Optimization of the antimicrobial peptide Bac7 by deep mutational scanning” (BMC Biology, 2022)
